Measurements from patent publication US12233115B2, “Long-acting parathyroid hormone” (Extend Biosciences, Inc., priority 2022, dated 2025).
Marks after values point to notes of the source that are not given here.

Experiments:
Type in all cases: in vivo
[1] = Single dose pharmacokinetics of EXT607 in male cynomolgus monkeys; settings: cynomolgus monkey, in vivo, sc; NHP, after subcutaneous dosing; read-out: terminal half-life
Experimental: In a single dose pharmacokinetic study, EXT607 was formulated in PBS and groups of male cynomolgus monkeys (n=3), weighing approximately 4 kg each, were dosed at a volume of 1 ml/kg as follows: Group 1, 20 μg/kg intravenous; Group 2, 7 μg/kg subcutaneous; Group 3, 20 μg/kg subcutaneous; Group 4, 70 μg/kg subcutaneous. Blood (1.0 mL) was collected via the jugular vein cannula, transferred into tubes containing K2EDTA, and kept on wet ice until processed for plasma. Blood samples were collected at 0 (pre-dose), 0.083 (IV only), 0.25, 0.5, 1, 2, 4, 6, 8, 12, 24, 36, 48, 60 and 72 h post-dose.
Pharmacokinetic parameters were determined from the plasma concentration versus time data (Table 5) by a non-compartmental analysis with uniform weighting using Phoenix® WinNonlin® Version 6.3 (Certara L.P. (Pharsight), St. Louis, MO). The concentration versus time data were analyzed using the IV bolus or extravascular administration models. Best fit Lambda z ranges were used.
At low doses, the rate of subcutaneous absorption is slower than at high doses, leading to a lower Cmax and an overall flatter PK profile.

[2] = Single dose pharmacokinetics of EXT608 in healthy humans; settings: human
Experimental: EXT608 vastly improves the serum half-life in humans in a dose-dependent manner. Sterile EXT608 formulations were prepared at a concentration of 0.4 mg/ml in 10 mM sodium acetate buffer pH=5.5, 4.5% mannitol, and 0.25% Polysorbate 80 and filled into sterile vials. Healthy human participants were administered EXT608 by subcutaneous injection in the abdomen at doses of 0, 36, 108, 216, or 324 micrograms (n=3).
Pharmacokinetics: 4 ml Blood samples were collected at −24, −1, 0.5, 1, 2, 4, 8, 12, 18, 24, 36, 48, and 72 hours relative to dosing as well as on Days 5, 7, 14, 21, and 28 after dosing. They were processed to K2EDTA plasma. […] Pharmacokinetic parameters were calculated for each individual using Kinetica software (ThermoFisher Scientific, Waltham, MA), and the parameter means and standard deviations are given in Table 12. For the lower doses (36, 108, and 216 μg), an accurate elimination half-life (t1/2) could not be determined because of limited timepoints with EXT608 concentrations above the lower limit of quantitation.

[3] = Repeat dose pharmacokinetics of EXT608 in male and female rats; settings: rat; for Cmin: 0-24 h; for AUC(0-t): sc, read-out: AUC0-24 h
Experimental: 21-Day Experiment: EXT608 was formulated in 20 mM sodium acetate pH=5.5 buffer with 0.8% sodium chloride. In a repeat dose toxicokinetic study, groups of 18 rats (9 males+9 females) were subcutaneously dosed daily at a volume of 0.5 ml/kg with either 14.2 μg/kg or 70 μg/kg of EXT608. On Day 21, blood samples (˜0.5 ml) were collected at t=0 (pre-dose), 0.5, 1, 3, 8, 24, 32, 48, and 72 h with each timepoint being collected from one of three cohorts of 3 male and 3 female animals. Each blood sample was collected from the jugular vein into tubes containing K2EDTA and manually inverted several times. Blood samples were kept on wet ice pending centrifugation. Samples were centrifuged (˜2700 g, ˜10 min, ˜5° C.) within 1 hour of collection. Plasma was recovered and divided evenly into duplicate aliquots and frozen. 90-Day Experiment: EXT608 was formulated in 20 mM sodium acetate pH=5.5 buffer with 0.8% sodium chloride and 0.1% Polysorbate 80. In a repeat dose toxicokinetic study, groups of 18 rats (9 males+9 females) were subcutaneously dosed daily at a volume of 0.5 ml/kg with either 1, 3, or 10 μg/kg of EXT608. On Day 90, blood samples (˜0.5 ml) were collected at t=0 (pre-dose), 0.5, 1, 3, 8, 24, 32, 48, and 72 h with each timepoint being collected from one of three cohorts of 3 male and 3 female animals. Plasma was prepared as described above for the 21-Day experiment. […] Group-averaged EXT608 levels as a function of time are shown in FIG. 13 for the last dose administration after either 21 days of daily dosing (14.2 and 70 μg/kg) or 90 days of daily dosing (1, 3, and 10 μg/kg). Surprising, the PK profiles changed as a function of dose level. […] Pharmacokinetic parameters were determined from the plasma concentration versus time data (Table 6) by a non-compartmental extravascular administration model with uniform weighting using Phoenix® WinNonlin® Version 6.4 (Certara L.P. (Pharsight), Princeton, NJ). Pharmacokinetic analysis was performed on data collected from t=0 to 72 h following the last administered dose. […] The Cmax/Cmin ratio represents the peak-to-trough ratio of EXT608 concentration that was observed during the dosing period. […] Without being bound by theory, the low peak-to-trough ratios observed at low doses could be the result of a slower rate of absorption of EXT608 from the subcutaneous space into circulation. A low peak-to-trough ratio is desirable in many therapeutic applications, including parathyroid hormone replacement therapy. It allows dosing at levels close to the ideal efficacious dose without going too high where toxicity might be observed or too low where the efficacy is reduced.

[4] = in vivo, 36 ug, single 36 μg SC
[5] = in vivo, 108 ug, single 108 μg SC
[6] = in vivo, 216 ug, single 216 μg SC
[7] = in vivo, 324 ug, single 324 μg SC
[8] = in vivo, 1 ug/kg, daily SC 1 μg/kg, 90 days

With `C=C1CC[C@H](OCCCNC(=O)CCOCCOCCOCCOCCOCCOCCOCCOCCOCCOCCOCCOCCOCCOCCOCCOCCOCCOCCOCCOCCOCCOCCOCCOCCOCCOCCOCCOCCOCCOCCOCCOCCOCCOCCOCCOCCNC(=O)CCN2C(=O)CC(SC[C@H](NC(=O)[C@H](Cc3ccccc3)NC(=O)[C@H](CC(N)=O)NC(=O)[C@H](Cc3c[nH]cn3)NC(=O)[C@@H](NC(=O)[C@H](CC(=O)O)NC(=O)[C@H](CCC(N)=O)NC(=O)[C@H](CC(C)C)NC(=O)[C@H](CCCCN)NC(=O)[C@H](CCCCN)NC(=O)[C@H](CCCNC(=N)N)NC(=O)[C@H](CC(C)C)NC(=O)[C@H](Cc3c[nH]c4ccccc34)NC(=O)[C@H](CCC(=O)O)NC(=O)[C@@H](NC(=O)[C@H](CCCNC(=N)N)NC(=O)[C@H](CCC(=O)O)NC(=O)[C@H](CCSC)NC(=O)[C@H](CO)NC(=O)[C@H](CC(N)=O)NC(=O)[C@H](CC(C)C)NC(=O)[C@H](Cc3c[nH]cn3)NC(=O)[C@H](CCCCN)NC(=O)CNC(=O)[C@H](CC(C)C)NC(=O)[C@H](CC(N)=O)NC(=O)[C@H](Cc3c[nH]cn3)NC(=O)[C@H](CCSC)NC(=O)[C@H](CC(C)C)NC(=O)[C@H](CCC(N)=O)NC(=O)[C@@H](NC(=O)[C@H](CCC(=O)O)NC(=O)[C@H](CO)NC(=O)[C@@H](NC(=O)[C@@H](N)CO)C(C)C)[C@@H](C)CC)C(C)C)C(C)C)C(N)=O)C2=O)C/C1=C/C=C1\CCC[C@]2(C)[C@@H]([C@H](C)CCCC(C)(C)O)CC[C@@H]12` (stereo partly shown) [EXT608] the half-life [1] was 1440 to 1920 min, the tlast ([2]; single 36 μg SC) was 24 h and the tlast ([2]; single 108 μg SC, 48 h (n = 1) or 72 h (n = 2)) was 48/72^a. The tlast ([2]; single 216 μg SC) was 48/72/120, the tlast ([2]; single 324 μg SC) was 168 h and the AUC(0-t) [2, 4] was 5.9 ± 2.7 ng·h/mL. It also gave a Cmax [2, 4] of 0.49 ± 0.27 ng/mL, a Tmax [2, 4] of 3.3 ± 1.2 h and an AUC(0-t) [2, 5] of 29.2 ± 8.4 ng·h/mL. The Cmax [2, 5] was 1.2 ± 0.3 ng/mL, the Tmax [2, 5] was 5.3 ± 2.3 h and the AUC(0-t) [2, 6] was 41.7 ± 17.4 ng·h/mL. The Cmax [2, 6] was 1.3 ± 0.5 ng/mL, the Tmax [2, 6] was 4 h and the AUC(0-inf) [2, 7] was 151 ± 16 ng·h/mL. It also gave an AUC(0-t) [2, 7] of 118 ± 11 ng·h/mL, a Cmax [2, 7] of 5 ± 2 ng/mL and an MRT [2, 7] of 105 ± 18 h. It also gave a Tmax [2, 7] of 2.7 ± 1.2 h, a half-life [2, 7] of 3.75 ± 0.542 days and a Vd/F ([2]; in vivo, 324 ug, single 324 μg SC, read-out: VZ/F) of 280 ± 42 L. The CL/F ([2]; plasma, 324 ug, single 324 μg SC) was 36.7 mL/min, the Tmax [3, 8] was 1 h and the half-life ([3]; in vivo, repeated daily SC dosing, across doses 1-70 μg/kg, read-out: t1/2 of elimination) was 624 to 828 min. For the same molecule, the Cmin ([3]; daily SC 1 μg/kg, 90 days) was 0.299 ng/mL, the Cmin ([3]; daily SC 3 μg/kg, 90 days) was 0.875 ng/mL and the Cmin ([3]; daily SC 10 μg/kg, 90 days) was 1.56 ng/mL. The Cmin ([3]; daily SC 14.2 μg/kg, 21 days) was 2.35 ng/mL, the Cmin ([3]; daily SC 70 μg/kg, 21 days) was 5.92 ng/mL and the AUC(0-t) [3, 8] was 11.2 ng·h/mL. For the same molecule, the AUC(0-t) ([3]; in vivo, 3 ug/kg, daily SC 3 μg/kg, 90 days) was 29.9 ng·h/mL, the AUC(0-t) ([3]; in vivo, 10 ug/kg, daily SC 10 μg/kg, 90 days) was 93.2 ng·h/mL and the AUC(0-t) ([3]; in vivo, 14.2 ug/kg, daily SC 14.2 μg/kg, 21 days) was 149 ng·h/mL. It also gave an AUC(0-t) ([3]; in vivo, 70 ug/kg, daily SC 70 μg/kg, 21 days) of 875 ng·h/mL.
